Results reported in patent publication US20210145944.

How the values were obtained:
Tau-410 = Tau-410 (UniProt P10636)
Tau-441 (P301L) = Tau-441 (P301L) (UniProt P10636)
p-Tau-441 = p-Tau-441 (UniProt P10636)
α-synuclein = α-synuclein (UniProt P37840)
Boc-QAR-AMC (ES014) = system: T1, Boc-QAR-AMC (ES014)
T1 sequence: QAR

Chain of Tau-410 (P10636 other isoform, or with tags, fused parts or gaps): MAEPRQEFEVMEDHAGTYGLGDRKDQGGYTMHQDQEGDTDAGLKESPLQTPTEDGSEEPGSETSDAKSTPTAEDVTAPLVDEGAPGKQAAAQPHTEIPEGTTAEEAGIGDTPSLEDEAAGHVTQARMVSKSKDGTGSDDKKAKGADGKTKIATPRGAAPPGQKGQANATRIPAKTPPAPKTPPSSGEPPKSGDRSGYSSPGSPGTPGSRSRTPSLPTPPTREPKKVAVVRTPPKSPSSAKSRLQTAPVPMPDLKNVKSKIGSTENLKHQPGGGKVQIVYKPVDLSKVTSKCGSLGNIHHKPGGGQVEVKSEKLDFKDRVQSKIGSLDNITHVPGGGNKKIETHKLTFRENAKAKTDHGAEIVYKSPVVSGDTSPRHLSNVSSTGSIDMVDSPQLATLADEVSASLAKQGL
Chain of Tau-441 (P301L) (P10636 other isoform, or with tags, fused parts or gaps P301L): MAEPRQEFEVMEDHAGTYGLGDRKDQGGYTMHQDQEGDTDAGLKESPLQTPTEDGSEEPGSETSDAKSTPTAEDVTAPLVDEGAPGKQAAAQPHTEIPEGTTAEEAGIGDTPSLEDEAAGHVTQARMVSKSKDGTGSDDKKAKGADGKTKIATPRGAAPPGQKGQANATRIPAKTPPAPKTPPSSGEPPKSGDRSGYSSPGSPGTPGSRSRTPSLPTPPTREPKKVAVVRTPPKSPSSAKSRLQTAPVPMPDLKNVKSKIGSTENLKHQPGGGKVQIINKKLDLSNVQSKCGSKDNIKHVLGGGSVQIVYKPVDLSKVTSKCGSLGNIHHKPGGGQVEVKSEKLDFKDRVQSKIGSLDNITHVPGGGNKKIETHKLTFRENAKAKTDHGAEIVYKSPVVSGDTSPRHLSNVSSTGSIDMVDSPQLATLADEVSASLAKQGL
Chain of p-Tau-441 (P10636 whole entry, looked up): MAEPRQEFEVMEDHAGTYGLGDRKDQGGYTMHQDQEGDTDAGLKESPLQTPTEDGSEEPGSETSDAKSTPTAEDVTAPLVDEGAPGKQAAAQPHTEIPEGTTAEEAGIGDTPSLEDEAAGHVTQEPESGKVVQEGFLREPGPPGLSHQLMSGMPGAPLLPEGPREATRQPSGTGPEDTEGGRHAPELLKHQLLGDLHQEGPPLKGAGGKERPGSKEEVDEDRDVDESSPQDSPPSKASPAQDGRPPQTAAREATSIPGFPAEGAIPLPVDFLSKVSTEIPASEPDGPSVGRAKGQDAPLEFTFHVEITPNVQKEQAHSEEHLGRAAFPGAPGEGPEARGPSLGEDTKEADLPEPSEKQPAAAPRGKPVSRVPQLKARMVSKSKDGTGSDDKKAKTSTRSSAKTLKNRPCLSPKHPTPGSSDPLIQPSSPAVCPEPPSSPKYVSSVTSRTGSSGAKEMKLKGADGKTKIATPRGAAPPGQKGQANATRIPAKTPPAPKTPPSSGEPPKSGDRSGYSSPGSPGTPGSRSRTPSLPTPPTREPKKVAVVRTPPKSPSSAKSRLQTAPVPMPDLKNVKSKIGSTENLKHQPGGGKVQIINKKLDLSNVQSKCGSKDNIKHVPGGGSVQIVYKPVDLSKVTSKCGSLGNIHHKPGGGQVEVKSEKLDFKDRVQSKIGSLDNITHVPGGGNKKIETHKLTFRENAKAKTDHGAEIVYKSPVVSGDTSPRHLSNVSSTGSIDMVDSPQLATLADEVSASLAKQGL

Substance | casein digestion by resin-immobilized protease, RFU over time (Bodipy-labelled casein) | casein digestion by resin-immobilized protease, RFU (520 nm) over time (Bodipy-labelled casein) | casein digestion by resin-immobilized protease, fluorescence (RFU) at 5 and 60 min (Bodipy-labelled casein) | casein digestion, fluorescence (RFU) of Bodipy-labelled casein after 1 h against protease concentration in solution (Bodipy-labelled casein) | casein-digestion activity, immobilized protease, fluorescence (Bodipy-labelled casein) | casein-digestion activity, immobilized protease, fluorescence (FIG. 2B) (Bodipy-labelled casein) | casein-digestion activity, protease in solution, fluorescence (Bodipy-labelled casein) | % digestion at 0 min (Tau-410) | % digestion at 1 min (Tau-410) | % digestion at 5 min (Tau-410) | % digestion at 60 min (Tau-410) | digestion on immobilized protease column (FIGS. 3B, 3C, 3E, 3F and Table 2) (Tau-410) | digestion on immobilized protease column, SDS-PAGE silver stain (FIG. 3A) (Tau-441 (P301L)) | loss of the Tau-441 (P301L) band on a silver-stained SDS-PAGE gel after incubation on the protease column (Tau-441 (P301L)) | % digestion at 0 min (p-Tau-441) | % digestion at 1 min (p-Tau-441) | % digestion at 5 min (p-Tau-441) | % digestion at 60 min (p-Tau-441) | digestion on immobilized protease column (FIGS. 3B, 3C, 3E, 3F and Table 2) (p-Tau-441) | % digestion at 0 min (α-synuclein) | also measured
Cathepsin D resin | no signal: the line falls from 0 to about -6000 RFU at 120 min, at or below the control resin (about 0) over the whole time range | – | – | – | – | – | – | – | – | – | – | – | – | – | – | – | – | – | – | – | –
trypsin | rises from 0 to about 24000 RFU at 60 min and about 76000 RFU at 120 min; control resin stays at about 0 | rises from 0 to about 46000 RFU at 60 min and about 58000 RFU at 120 min; Control-Resin (no protease) stays at or slightly below 0 | bar at 5 min about 1.0x10^7 RFU, bar at 60 min about 2.2x10^7 RFU; lowest of the three groups; no control bar drawn | near 0 up to about 0.2 ug/ml, rises slowly to about 1.4x10^7 RFU at 100 ug/ml; no upper plateau; lowest of the three curves | exhibited casein-digestion activity at 5 minute and 60 minute incubation times | exhibited casein-digestion activity at 60 minute and 120 minute incubation times | exhibited casein-digestion activity having linear reaction kinetics up to approximately 6 µg/ml of each protease | 0% | 59% | 65% | 93% | rapidly degraded | rapidly degraded | no band in the Trypsin column lanes at 2, 10 and 20 min; the No protease column lanes show a strong band of equal strength at 2, 10 and 20 min | 0% | 70% | 100% | 100% | rapidly degraded | 0% | % digestion at 1 min (α-synuclein): 90%; % digestion at 5 min (α-synuclein): 100%; % digestion at 60 min (α-synuclein): 100%; digestion on immobilized protease column (FIGS. 3D and 3G and Table 2) (α-synuclein): rapidly degraded
elastase | rises from 0 to about 40000 RFU at 60 min and about 95000 RFU at 120 min; highest curve; control resin stays at about 0 | rises from 0 to about 107000 RFU at 60 min and about 150000 RFU at 120 min; Control-Resin (no protease) stays at or slightly below 0 | bar at 5 min about 1.5x10^7 RFU, bar at 60 min about 4.3x10^7 RFU; signal grows with time; no control bar drawn | near 0 at about 0.006 ug/ml, rises steadily to about 8.5x10^7 RFU at 100 ug/ml on a log axis; still rising, no upper plateau; highest of the three curves | exhibited casein-digestion activity at 5 minute and 60 minute incubation times | exhibited casein-digestion activity at 60 minute and 120 minute incubation times | exhibited casein-digestion activity having linear reaction kinetics up to approximately 6 µg/ml of each protease | 0% | 28% | 50% | 81% | rapidly degraded | rapidly degraded | no band in the Elastase column lanes at 2, 10 and 20 min; the No protease column lanes show a strong band of equal strength at 2, 10 and 20 min, just above the second labelled marker | 0% | 33% | 93% | 100% | rapidly degraded | 0% | % digestion at 1 min (α-synuclein): 71%; digestion on immobilized protease column (FIGS. 3D and 3G and Table 2) (α-synuclein): rapidly degraded
kallikrein-6 (KLK6) activated by lysyl endopeptidase | close to the control at 60 min (about 1000-2000 RFU), then about 19000 RFU at 120 min; control resin stays at about 0 | – | – | – | also exhibited casein-digestion activity at 120 minute incubation time | – | – | – | – | – | – | – | – | – | – | – | – | – | – | – | cleavage of fluorogenic peptide substrate, immobilized protease, 30, 60, 120 min (Boc-QAR-AMC (ES014)): exhibited protease activity at all time points tested; cleavage of the fluorogenic peptide substrate by resin-immobilized protease, AMC fluorescence (RFU) over time (Boc-QAR-AMC (ES014)): about 65000 RFU at 30 min, about 108000 at 60 min and about 215000 at 120 min, still rising; Control resin + ES014 stays at 0
